Measured values taken from patent publication US20230105029A1 (CHIA TAI TIANQING PHARMACEUTICAL GROUP, published 2023).

Tests used:
[1] = target: T1, cynomolgus monkey IL4Rα-his protein (cynomolgus monkey, UniProt A0A2K5V580 33-239); assay: indirect ELISA, coated cyno IL4Rα-his
T1 construct: Bought protein; also called Cynomolgus IL4Rα; Cyno-IL4Rα-his; not shown: his tag
Experimental: (§1) The anti-IL4Rα antibodies' cross-reaction with cynomolgus IL4Rα proteins or cal-IL4Rα-his proteins were measured. Briefly, 96-well micro plates were coated with 2 μg/ml cynomolgus IL4Rα-his protein (Sino biological inc., Cat #90897—C08H) or 0.2 μg/ml cal-IL4Rα-his protein (Custom made by Sino biological inc., Cat #BAX2) in carbonate/bicarbonate buffer (pH 9.6), 100 μl/well, for 2 hours at 37° C. ELISA plates were washed once with wash buffer (PBS+0.05% w/v Tween-20, PBST) and then blocked with 200 μl/well blocking buffer (5% w/v non-fatty milk in PBST) for 2 hours at 37° C. Plates were washed again and incubated with 100 μl/well serially diluted anti-IL4Rα antibodies of the disclosure or controls (0.004-66.7 nM, 5-fold serial dilution in 2.5% w/v non-fatty milk in PBST, starting at 66.7 nM) for 40 minutes at 37° C. […] After a final wash, plates were incubated with 100 μl/well TMB (Innoreagents). The reaction was stopped 3-10 minutes later at 25° C. with 50 μl/well 1M H₂SO₄, and the absorbance was read at 450 nm. Data was analyzed using Graphpad Prism software and EC₅₀ values were reported.

[2] = target: T2, human IL4Rα expressed on 293F-IL4Rα cells (human, UniProt P24394 26-825); assay: flow cytometry, blocks biotin-IL4 binding to 293F-IL4Rα cells
T2 construct: whole, on cells; also called cell surface human IL4Rα
Experimental: Then, 1×10⁵ cells per well in 96 well-plates were incubated in 100 μL of the anti-IL4Rα antibodies or controls of various concentrations (starting at 80 nM with a 4-fold serial dilution) in FACS buffer for 40 minutes on ice. The plates were washed twice with FACS buffer, and added and incubated for 40 minutes at 4° C. in dark with 100 μl/well 1.67 nM biotin-labeled human IL4 protein (Sino biological inc., Cat #11846-HNAE). The plates were washed twice with FACS buffer, and then added and incubated for 40 minutes at 4° C. in dark with 100 μl/well R-Phycoerythrin Streptavidin (1:500 dilution in FACS buffer, Jackson Immunoresearch, Cat #016-110-084). Cells were washed twice and resuspended in FACS buffer. Fluorescence was measured using a Becton Dickinson FACS Canto II-HTS equipment. Data was analyzed using Graphpad Prism software and IC₅₀ values were reported.

[3] = target: T3, recombinant human IL4Rα-his protein (in house made) (human, UniProt P24394 26-232, limits assumed); assay: competitive ELISA, blocks biotin-IL4 binding to coated IL4Rα-his
T3 construct: also called Human IL4Ra-his
Experimental: (§2) The activity of the anti-IL4Rα antibodies of the disclosure to block IL4-IL4Rα interaction was measured in a competitive ELISA assay. Briefly, 100 μl human IL4Rα-his proteins (prepared in-house with SEQ ID NO: 57) were coated on 96-well micro plates at 2 μg/mL in PBS overnight at 4° C. The next day, plates were washed with wash buffer (PBS+0.05% w/v Tween-20, PBST), and blocked with 5% w/v non-fatty milk in PBST for 2 hours at 37° C. Plates were then washed again using wash buffer.
(§3) Serially diluted anti-IL4Rα antibodies or the controls (starting at 80 nM with a 4-fold serial dilution) in 2.5% w/v non-fatty milk in PBST, 100 μl per well, were added to the IL4Rα bound plates, and incubated with the human IL4Rα-his proteins at 37° C. for 40 minutes. Plates were washed 4 times using wash buffer, and then added and incubated for 40 minutes at 37° C. with 100 μl/well of 0.56 nM biotin-labeled human IL4 protein (Sino biological inc., Cat #11846-HNAE). Plates were washed again using wash buffer. Thereafter, the plates were added with 100 μl/well of streptavidin conjugated HRP (1:10000 dilution in PBST buffer, Jackson Immunoresearch, Cat #016-030-084) and incubated for 40 minutes at 37° C. Plates were washed again using wash buffer. Finally, TMB was added and the reaction was stopped using 1M H₂SO₄, and the absorbance was read at 450 nm. Data was analyzed using Graphpad Prism software and IC₅₀ values were reported.

[4] = target: T3, recombinant human IL4Rα-his protein (in …); assay: competitive ELISA: coated human IL4Rα-his, blocked ligand biotin human IL4
Experimental: as §2, §3

[5] = target: T1, cynomolgus monkey IL4Rα-his protein; assay: indirect ELISA, coated cyno IL4Rα-his; remark: listed apart in the source
[6] = target: T2, human IL4Rα expressed on 293F-IL4Rα …; assay: flow cytometry on 293F-IL4Rα cells
[7] = target: T1, cynomolgus monkey IL4Rα-his protein; assay: indirect ELISA on coated cynomolgus IL4Rα-his
Experimental: as §1

[8] = target: T3, recombinant human IL4Rα-his protein (in …); assay: capture ELISA: antibody captured on anti-IgG Fc plate, biotin human IL4Rα-his detected
Experimental: Plates were washed once with wash buffer (PBS+0.05% w/v Tween-20, PBST) and then blocked with 200 μl/well blocking buffer (5% w/v non-fatty milk in PBST) for 2 hours at 37° C. Plates were washed again and incubated with 100 μl/well serially diluted anti-IL4Rα antibodies of the disclosure, the benchmark or negative control hIgG (human immunoglobulin (pH4) for intravenous injection, Hualan Biological Engineering Inc.) (5-fold dilution in 2.5% w/v non-fatty milk in PBST, starting at 66.7 nM) for 40 minutes at 37° C., and then washed 4 times again. Plates containing captured anti-IL4Rα antibodies were incubated with biotin-labeled human IL4Rα-his protein (in house made with SEQ ID NO: 57, 0.14 nM in 2.5% w/v non-fatty milk in PBST, 100 μl/well) for 40 minutes at 37° C., washed 4 times, and incubated with streptavidin conjugated HRP (1:10000 dilution in PBST, Jackson Immuno Research, Cat #016-030-084, 100 μl/well) for 40 minutes at 37° C. After a final wash, plates were incubated with 100 μl/well ELISA substrate TMB (Innoreagents, Cat #TMB-S-002). The reaction was stopped in 10 minutes at 25° C. with 50 μl/well 1M H₂SO₄, and the absorbance was read at 450 nm. Data was analyzed using Graphpad Prism software and EC₅₀ values were reported.
For the capture ELISA, 96-well micro plates were coated with 2 μg/ml goat anti-human IgG (AffiniPure Goat Anti-Human IgG, Fcγ fragment specific, Jackson Immunoresearch, Cat #109-005-098) instead of goat anti-mouse IgG Fey fragment, 100 μl/well.

| Binder | binding result [1] | IC50 [2] [nM] | IC50 [3] [nM] | IC50 [4] [nM] | EC50 [1] [nM] | EC50 [5] [nM] | EC50 [6] [nM] | EC50 [7] [nM] | EC50 [8] [nM] |
| --- | --- | --- | --- | --- | --- | --- | --- | --- | --- |
| mouse antibody B1D2F7D3B5 (antibody, V domains shown, Mouse hybridoma mAb) VH: EVKLVESGGGLVKPGGSLKLSCAASGFTFSSYAMSWVRQTPEKRLEWVASISSGDSTYYLDSVKGRFTISRDNAMNILYLQMSSLRSEDTAVYYCERSGGSAPYWGQGTLVSVSA VL: QIVLTQSPAIMSASPGEMVTISCSASSSVSYMYWYQQKPGSSPKPWIYRTSNLASGVPARFSGSGSGTSYSLTISSMEAEDAATYYCQQYHSFPLTFGAGTKLELK | no binding (tested: 66.7 nM (highest concentration tested)) | 0.78 | 1.8 | 1.8 |  |  |  |  |  |
| mouse antibody B9D1D11F8D8 (antibody, V domains shown, Mouse hybridoma mAb) VH: EVKLVESGGGLVKPGGSLKLSCAASGFTFSSYAMSWVRQTPEKRLEWVASISSGDSTYYLDSVKGRFTISRDNARNILYLQVSSLRSEDTAMYYCERSGGSAPYWGQGTLVTVSA VL: QIVLTQSPAIMSASPGDMVTISCSASSSVNYMYWYQQKPGSSPKPWIYRTSNLASGVPARFSGSGSGTSYSLTISSMEAEDAATYYCQQYHSFPLTFGAGTKLELK | no binding (tested: 66.7 nM (highest concentration tested)) | 0.75 | 2.88 | 2.88 |  |  |  |  |  |
| mouse antibody B8G11F2B7G5E8 (antibody, V domains shown, Mouse hybridoma mAb; also called Mouse B8G11F2B7G5E8; mAb B8G11F2B7G5E8) VH: EVQLQQSGADLVRPGASVKLSCTASGFNIKDTYMHWVKQRPEQGLEWVGRIDPTNGYTIYASKFQGKATITADTSSNTAYMQLSSLTSGDTAVYHCVSRRPWFAYWGQGTLVTVSA VL: DILMTQTPLSLPVSLGAQASISCRSSQSIVHSNGNTYLEWYLQKPGQSPKLLIYKVTNRFSGVPDRFSGSGSGTDFTLKISRVEAEDLGIYYCFQGSHVPYTFGGGTKLEIK |  | 0.8 | 0.81 | 0.81 | 0.29 | 0.5 | 0.412 | 0.291 | 0.143 |
| chimeric antibody B8G11F2B7G5E8 (antibody, human IgG4 S228P, kappa, V domains shown, Mouse variable domains on human IgG4/kappa; also called Chimeric B8G11F2B7G5E8; chB8G11F2B7G5E8) VH: EVQLQQSGADLVRPGASVKLSCTASGFNIKDTYMHWVKQRPEQGLEWVGRIDPTNGYTIYASKFQGKATITADTSSNTAYMQLSSLTSGDTAVYHCVSRRPWFAYWGQGTLVTVSA VL: DILMTQTPLSLPVSLGAQASISCRSSQSIVHSNGNTYLEWYLQKPGQSPKLLIYKVTNRFSGVPDRFSGSGSGTDFTLKISRVEAEDLGIYYCFQGSHVPYTFGGGTKLEIKR |  |  |  |  |  | 1.06 | 0.775 |  | 0.275 |
| mouse antibody C2C1A1A1 (antibody, V domains shown, Mouse hybridoma mAb; also called Mouse C2C1A1A1) VH: EVQLVESGGGLVQPGGSLKLSCAASGFTFSTYGMSWVRQTPDKRLELVATINSNGGSTSYPDSVKGRFTISRDNAKNTLYLQMSSLKSEDTAMFYCARFFRFRNAMDYWGQGTSVTVSS VL: DIQMTQSPASLSASVGETVTITCRTSENIYSYLAWYQQKQGKSPQFLVYNAKTLAEGVPSRFSGSGSGTQFSLNINSLQSEDFGSYYCQHYYGPPTWTFGGGTKLEIK |  | 0.44 | 0.81 | 0.812 | 0.33 |  | 0.307 | 0.329 | 0.0262 |
| chimeric antibody C2C1A1A1 (antibody, human IgG4 S228P, kappa, V domains shown, Mouse variable domains on human IgG4/kappa; also called Chimeric C2C1A1A1; chC2C1A1A1) VH: EVQLVESGGGLVQPGGSLKLSCAASGFTFSTYGMSWVRQTPDKRLELVATINSNGGSTSYPDSVKGRFTISRDNAKNTLYLQMSSLKSEDTAMFYCARFFRFRNAMDYWGQGTSVTVSS VL: DIQMTQSPASLSASVGETVTITCRTSENIYSYLAWYQQKQGKSPQFLVYNAKTLAEGVPSRFSGSGSGTQFSLNINSLQSEDFGSYYCQHYYGPPTWTFGGGTKLEIKR |  |  |  |  |  | 0.6 | 0.63 |  | 0.0549 |
| mouse antibody C2B2F7B7 (antibody, V domains shown, Mouse hybridoma mAb) VH: EVQLVESGGGLVQPGGSLKLSCAASGFTFSTYGMSWVRQTPDKRLELVATINSNGGSTNYPDSVKGRFTISRDNAKNTLYLQMSSLKSEDTAMYYCARFFRIRNAMDYWGQGTSVTVSS VL: DIQMTQSPASLSASVGETVTITCRASENIYSYLAWYQQKQGKSPQFLVYNAKTLAEGVPSRFSGSGSGTQFSLKINSLQPEDFGSYYCQHYYGTPTWTFGGGTKLEIK |  | 0.4 | 0.73 | 0.726 | 108 |  |  | 108 |  |
